Results from patent US7026443.
Where two headings read alike, the source gives them in different places.

Experiments:
[1] = molecular target: HLA-B*5101 (human); test: competition with 125I-labeled standard probe peptide for purified HLA, gel filtration; details: for relative binding ratio: scale: ratio
[2] = molecular target: HLA-B*5301 (human); test: as above; details: for relative binding ratio: scale: ratio
[3] = molecular target: HLA-B*5401 (human); test: as above; details: for relative binding ratio: scale: ratio
[4] = molecular target: HLA-B*0702 (human); test: as above; details: for relative binding ratio: scale: ratio
[5] = molecular target: HLA-B*3501 (human); test: as above; details: for relative binding ratio: scale: ratio
[6] = molecular target: HLA-A*1101 (purified HLA class I molecule) (human); test: competition with 125I-labelled standard peptide for purified HLA-A*1101, gel filtration
[7] = molecular target: HLA-A*0201 (purified HLA class I molecule) (human)
[8] = molecular target: HLA-A*0301 (human); test: competition with 125I-labeled standard peptide for purified HLA-A*0301, gel filtration
[9] = molecular target: HLA-A*1101 (human); test: inhibition of 125I-labeled standard peptide binding to purified HLA, gel filtration
[10] = molecular target: HLA-A*0301 (human); test: as above
[11] = molecular target: HLA-A*2402 (human); test: competition with 125I-labelled standard peptide for purified HLA, gel filtration
[12] = molecular target: HLA-A*0101 (human); test: competition with 125I-labelled standard peptide 944.02 ([..]) for purified HLA-A*0101, gel filtration; details: remark: other sources report otherwise
[13] = molecular target: HLA-A*2402 (human); test: competition with 125I-labelled standard probe peptide for purified HLA-A*2402, gel filtration
[14] = molecular target: HLA-A*0301 (human); test: competitive inhibition of 125I-labelled standard peptide binding to purified HLA-A*0301, gel filtration; details: remark: other sources report otherwise
[15] = molecular target: HLA-A*3301 (human); test: competition with 125I-labelled standard peptide for purified HLA, gel filtration
[16] = molecular target: HLA-A*1101 (human); test: as above
[17] = molecular target: HLA-A*6801 (human); test: as above
[18] = molecular target: HLA-A*0301 (human); test: as above
[19] = molecular target: HLA-A*2402 (human); test: competition with 125I-labelled standard peptide for purified HLA-A*2402, gel filtration
[20] = molecular target: HLA-B*5101 (human); test: competition with 125I-labeled standard peptide for purified HLA, gel filtration
[21] = molecular target: HLA-B*5301 (human); test: as above
[22] = molecular target: HLA-B*5401 (human); test: as above
[23] = molecular target: HLA-B*0702 (human); test: as above
[24] = molecular target: HLA-B*3501 (human); test: as above
[25] = remark: other sources report otherwise

B1: HPV16 E7 46 … (peptide)
peptide: EPDRAHYNI
modifications: not checked
- relative binding ratio [1]: 0.0031
- relative binding ratio [2]: 0.0017
- relative binding ratio [3]: 0.0002
- relative binding ratio [4]: 0.0001
- relative binding ratio [5]: 0.0001

B2: HPV18 E6 111-119 peptide … (peptide)
peptide: PLNPAEKLR
modifications: not checked
- relative binding ratio (IC50 of standard peptide / IC50 of test peptide) [6]: 0.0005

B3: HPV18 E1 110 peptide … (peptide)
peptide: SPRLQEISL
modifications: not checked
- binding affinity ratio (IC50 of standard peptide / IC50 of test peptide) [1]: 0.0005
- binding affinity ratio (IC50 of standard peptide / IC50 of test peptide) [2]: 0.0002
- binding affinity ratio (IC50 of standard peptide / IC50 of test peptide) [4]: 0.62
- binding affinity ratio (IC50 of standard peptide / IC50 of test peptide) [5]: 0.0008

B4: HPV45 E1 peptide … (position 311, 9 amino acids) (peptide)
peptide: ALYWYRTGI
modifications: not checked
- relative binding ratio (IC50 of standard peptide / IC50 of test peptide) [7]: 0.0032

B5: HPV16 E1 peptide … (position 443, 9 amino acids) (peptide)
peptide: VMFLRYQGV
modifications: not checked
- relative binding ratio (IC50 of standard peptide / IC50 of test peptide) (ratio to standard peptide) [7]: 0.014

B6: HPV16 E1 peptide … (position 112, 9 amino acids) (peptide)
peptide: AICIEKQSR
modifications: not checked
- relative binding ratio (IC50 of standard peptide / IC50 of test peptide) (ratio to standard peptide) [8]: 0.001
- binding affinity ratio (IC50 of standard peptide / IC50 of test peptide) [9]: 0.0057
- binding affinity ratio (IC50 of standard peptide / IC50 of test peptide) [10]: 0.001

B7: HPV18 E7 position 63, 10-mer … (peptide)
peptide: CMCCKCEARI
modifications: not checked
- binding affinity ratio (IC50 of standard peptide / IC50 of test peptide) [11]: 0.0001

B8: HPV16 E1 peptide … (position 272, 9 amino acids) (peptide)
peptide: GMVVLLLVR
modifications: not checked
- binding affinity ratio (IC50 of standard peptide / IC50 of test peptide) [9]: 0.0082
- binding affinity ratio (IC50 of standard peptide / IC50 of test peptide) [10]: 0.0036

B9: HPV16 E7 46 … (peptide)
peptide: EPDRAHYNIV
modifications: not checked
- relative binding ratio [1, 25]: 0.0001
- relative binding ratio [2, 25]: 0.0001
- relative binding ratio [3, 25]: 0.0001
- relative binding ratio [4, 25]: 0.0001
- relative binding ratio [5, 25]: 0.0001

B10: HPV18 E6 3-12 peptide … (peptide)
peptide: RFEDPTRRPY
modifications: not checked
- relative binding ratio (IC50 of standard peptide / IC50 of test peptide) [6]: 0.0002

B11: HPV18 E6 59-67 peptide … (peptide)
peptide: SIPHAACHK
modifications: not checked
- relative binding ratio (IC50 of standard peptide / IC50 of test peptide) [6]: 0.12

B12: HPV16 E1 peptide … (position 90, 9 amino acids) (peptide)
peptide: YLVSPLSDI
modifications: not checked
- relative binding ratio (IC50 of standard peptide / IC50 of test peptide) (ratio to standard peptide) [7]: 0.02

B13: HPV18 E7 63-73 peptide … (peptide)
peptide: CMCCKCEARIK
modifications: not checked
- relative binding ratio (IC50 of standard peptide / IC50 of test peptide) [8]: 0.0014
- relative binding ratio (IC50 of standard peptide / IC50 of test peptide) [6]: 0.0002

B14: HPV16 E7 18 ETTDLYCY (peptide)
peptide: ETTDLYCY
modifications: not checked
- binding affinity ratio (IC50 of standard peptide / IC50 of test peptide) [12]: 0.078
- relative binding ratio (IC50 of standard peptide / IC50 of test peptide) [13, 25]: 0.0001
- relative binding ratio (IC50 of standard peptide / IC50 of test peptide) (ratio to standard peptide) [14]: 0.0002

B15: HPV16 E7 peptide … (peptide)
peptide: IVCPICSQK
modifications: not checked
- binding affinity ratio (IC50 of standard peptide / IC50 of test peptide) [15, 25]: 0.0016
- binding affinity ratio (IC50 of standard peptide / IC50 of test peptide) [16, 25]: 0.0065
- binding affinity ratio (IC50 of standard peptide / IC50 of test peptide) [17, 25]: 0.01
- binding affinity ratio (IC50 of standard peptide / IC50 of test peptide) [18, 25]: 0.0077

B16: HPV16 E1 peptide … (position 204, 9 amino acids) (peptide)
peptide: KAAMLAKFK
modifications: not checked
- binding affinity ratio (IC50 of standard peptide / IC50 of test peptide) [9]: 0.18
- binding affinity ratio (IC50 of standard peptide / IC50 of test peptide) [10]: 0.11

B17: HPV18 E6 position 44, 10-mer … (peptide)
peptide: VFEFAFKDLF
modifications: not checked
- binding affinity ratio (IC50 of standard peptide / IC50 of test peptide) [11]: 0.036

B18: HPV18 E6 144-152 peptide … (peptide)
peptide: RARQERLQR
modifications: not checked
- relative binding ratio (IC50 of standard peptide / IC50 of test peptide) [6]: 0.0002

B19: HPV18 E1 97 peptide … (peptide)
peptide: SPLGERLEV
modifications: not checked
- binding affinity ratio (IC50 of standard peptide / IC50 of test peptide) [1]: 0.0002
- binding affinity ratio (IC50 of standard peptide / IC50 of test peptide) [2]: 0.0002
- binding affinity ratio (IC50 of standard peptide / IC50 of test peptide) [3]: 0.0011
- binding affinity ratio (IC50 of standard peptide / IC50 of test peptide) [4]: 0.13
- binding affinity ratio (IC50 of standard peptide / IC50 of test peptide) [5]: 0.0003

B20: HPV18 E6 position 11, 11-mer … (peptide)
peptide: PYKLPDLCTEL
modifications: not checked
- binding affinity ratio (IC50 of standard peptide / IC50 of test peptide) [11]: 0.0064

B21: HPV16 E6 66 … (peptide)
peptide: PYAVCDKCLKF
modifications: not checked
- relative binding ratio (IC50 of standard peptide / IC50 of test peptide) [13]: 0.11
- relative binding ratio (IC50 of standard peptide / IC50 of test peptide) (ratio to standard peptide) [19]: 0.11

B22: HPV16 E6 98 … (peptide)
peptide: QYNKPLCDLL
modifications: not checked
- relative binding ratio (IC50 of standard peptide / IC50 of test peptide) [13]: 0.0015
- relative binding ratio (IC50 of standard peptide / IC50 of test peptide) (ratio to standard peptide) [19]: 0.0015

B23: HPV16 E1 308 … (peptide)
peptide: EPPKLRSTAA
modifications: not checked
- binding affinity ratio (IC50 of standard peptide / IC50 of test peptide) [20]: 0.0002
- binding affinity ratio (IC50 of standard peptide / IC50 of test peptide) [21]: 0.0002
- binding affinity ratio (IC50 of standard peptide / IC50 of test peptide) [22]: 0.02
- binding affinity ratio (IC50 of standard peptide / IC50 of test peptide) [23]: 0.0002
- binding affinity ratio (IC50 of standard peptide / IC50 of test peptide) [24]: 0.0003

B24: HPV16 E7 5 … (peptide)
peptide: TPTLHEYML
modifications: not checked
- relative binding ratio [1, 25]: 0.0001
- relative binding ratio [2, 25]: 0.0001
- relative binding ratio [3, 25]: 0.0002
- relative binding ratio [4, 25]: 0.11
- relative binding ratio [5, 25]: 0.0001

B25: HPV16 E6 98 … (peptide)
peptide: QYNKPLCDL
modifications: not checked
- relative binding ratio (IC50 of standard peptide / IC50 of test peptide) [13]: 0.0001
- relative binding ratio (IC50 of standard peptide / IC50 of test peptide) (ratio to standard peptide) [19]: 0.0001

B26: HPV16 E1 peptide … (position 191, 9 amino acids) (peptide)
peptide: LTNILNVLK
modifications: not checked
- binding affinity ratio (IC50 of standard peptide / IC50 of test peptide) [9]: 0.42
- binding affinity ratio (IC50 of standard peptide / IC50 of test peptide) [10]: 0.0086

B27: HPV16 E1 peptide … (position 620, 9 amino acids) (peptide)
peptide: LSLHEDEDK
modifications: not checked
- binding affinity ratio (IC50 of standard peptide / IC50 of test peptide) [9]: 0.0002
- binding affinity ratio (IC50 of standard peptide / IC50 of test peptide) [10]: 0.0005

B28: HPV45 E1 peptide … (position 532, 9 amino acids) (peptide)
peptide: ALDGNPISI
modifications: not checked
- relative binding ratio (IC50 of standard peptide / IC50 of test peptide) [7]: 0.021

B29: HPV16 E1 576 … (peptide)
peptide: WPYLHNRLVV
modifications: not checked
- binding affinity ratio (IC50 of standard peptide / IC50 of test peptide) [20]: 0.074
- binding affinity ratio (IC50 of standard peptide / IC50 of test peptide) [21]: 0.0002
- binding affinity ratio (IC50 of standard peptide / IC50 of test peptide) [22]: 0.076
- binding affinity ratio (IC50 of standard peptide / IC50 of test peptide) [23]: 0.095
- binding affinity ratio (IC50 of standard peptide / IC50 of test peptide) [24]: 0.0012

B30: HPV16 E1 576 … (peptide)
peptide: WPYLHNRLV
modifications: not checked
- binding affinity ratio (IC50 of standard peptide / IC50 of test peptide) [20]: 0.11
- binding affinity ratio (IC50 of standard peptide / IC50 of test peptide) [21]: 0.0002
- binding affinity ratio (IC50 of standard peptide / IC50 of test peptide) [22]: 0.18
- binding affinity ratio (IC50 of standard peptide / IC50 of test peptide) [23]: 0.052
- binding affinity ratio (IC50 of standard peptide / IC50 of test peptide) [24]: 0.0003

B31: HPV16 E6 65 … (peptide)
peptide: NPYAVCDKCL
modifications: not checked
- relative binding ratio [1]: 0.0001
- relative binding ratio [2]: 0.0001
- relative binding ratio [3]: 0.0001
- relative binding ratio [4]: 0.0001
- relative binding ratio [5]: 0.0001

B32: HPV16 E6 peptide … (peptide)
peptide: TTLEQQYNK
modifications: not checked
- binding affinity ratio (IC50 of standard peptide / IC50 of test peptide) [15]: 0.066
- binding affinity ratio (IC50 of standard peptide / IC50 of test peptide) [16]: 0.29
- binding affinity ratio (IC50 of standard peptide / IC50 of test peptide) [17]: 0.3
- binding affinity ratio (IC50 of standard peptide / IC50 of test peptide) [18]: 0.01

B33: HPV18 E6 position 33, 9-mer … (peptide)
peptide: VYCKTVLEL
modifications: not checked
- binding affinity ratio (IC50 of standard peptide / IC50 of test peptide) [11]: 0.022

B34: HPV16 E6 59 … (peptide)
peptide: IVYRDGNPY
modifications: not checked
- binding affinity ratio (IC50 of standard peptide / IC50 of test peptide) [12]: 0.0018
- relative binding ratio (IC50 of standard peptide / IC50 of test peptide) [13, 25]: 0.0001
